Results on 6 molecules are retold here after US20260049134A1 (UNIVERSITY OF FLORIDA RESEARCH FOUNDATION, published 2026).

In assay [1] the target is T1, DCC.
T1 construct: coated protein in the ELISA; also called DCC-His (R&D Systems)
T1 chain: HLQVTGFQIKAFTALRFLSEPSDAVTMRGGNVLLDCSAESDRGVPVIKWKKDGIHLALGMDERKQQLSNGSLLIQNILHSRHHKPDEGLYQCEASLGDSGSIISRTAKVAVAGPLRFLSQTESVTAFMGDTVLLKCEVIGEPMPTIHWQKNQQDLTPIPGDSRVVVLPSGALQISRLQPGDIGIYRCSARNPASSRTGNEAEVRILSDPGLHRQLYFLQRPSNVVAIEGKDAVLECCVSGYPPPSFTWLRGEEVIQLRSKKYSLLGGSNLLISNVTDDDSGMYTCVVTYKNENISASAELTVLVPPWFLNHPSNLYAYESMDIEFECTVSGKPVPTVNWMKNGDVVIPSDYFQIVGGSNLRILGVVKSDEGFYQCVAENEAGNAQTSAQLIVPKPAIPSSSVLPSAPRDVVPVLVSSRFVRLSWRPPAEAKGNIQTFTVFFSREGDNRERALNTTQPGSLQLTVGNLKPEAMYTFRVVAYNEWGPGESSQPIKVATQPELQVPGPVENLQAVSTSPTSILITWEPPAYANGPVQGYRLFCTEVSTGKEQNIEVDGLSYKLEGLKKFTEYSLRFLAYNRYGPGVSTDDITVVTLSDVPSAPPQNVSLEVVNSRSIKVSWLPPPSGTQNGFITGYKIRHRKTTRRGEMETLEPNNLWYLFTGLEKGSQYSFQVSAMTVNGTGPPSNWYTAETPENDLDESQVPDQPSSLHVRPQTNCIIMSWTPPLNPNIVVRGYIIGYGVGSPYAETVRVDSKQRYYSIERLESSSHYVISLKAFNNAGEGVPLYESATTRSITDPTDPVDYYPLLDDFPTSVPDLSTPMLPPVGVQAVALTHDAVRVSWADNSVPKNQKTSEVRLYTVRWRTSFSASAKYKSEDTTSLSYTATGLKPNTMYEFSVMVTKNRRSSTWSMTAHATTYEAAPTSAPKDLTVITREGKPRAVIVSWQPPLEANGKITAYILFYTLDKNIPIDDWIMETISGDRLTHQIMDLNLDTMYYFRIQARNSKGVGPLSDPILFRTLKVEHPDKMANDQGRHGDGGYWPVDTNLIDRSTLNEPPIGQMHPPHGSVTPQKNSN
The assay is described as follows: ELISA on coated DCC-His, 150 ng IgG1; None 0.095. The method, then: (§1) Recombinant purified ECDs (50-150 ng) of each putative target protein were coated, incubated with 150 ng of the indicated primary antibody, and binding was detected using a peroxidase-conjugated anti-human Fab secondary antibody. Heatmap represents averages of technical triplicates. (8B) Target validation via siRNA knockdown. H929 cells were transfected with siRNA pools targeting the putative antibody targets ICAM1, CADM1, and PTPRG. Cells were then subjected to cognate IgG binding analysis via flow cytometry. (NT, non-targeting siRNA).
(§2) ELISA ELISA was conducted as described previously. Briefly, 50-150 ng of antigen was coated overnight in half-area 96-well plates at 4° C., blocked with 3% BSA at 37° C. for 1 h, and 150 ng of chimeric rabbit/human IgG1 was added, incubating for 2 h at 37° C. […] After incubating at 37° C. for 15 min-1 h (depending on intensity of controls), data were acquired using a SpectraMax M5 plate reader (Molecular Devices).
On the technique in general: In an ELISA, binding on a coated surface is turned into a signal by an enzyme label.

Assay [2] has as its target T2, CADM1-His (Acro Biosystems) (human, UniProt Q9BY67 45-374).
T2 construct: Bought; also called CADM1/IGSF4A; not shown: His tag of the bought protein
T2 sequence: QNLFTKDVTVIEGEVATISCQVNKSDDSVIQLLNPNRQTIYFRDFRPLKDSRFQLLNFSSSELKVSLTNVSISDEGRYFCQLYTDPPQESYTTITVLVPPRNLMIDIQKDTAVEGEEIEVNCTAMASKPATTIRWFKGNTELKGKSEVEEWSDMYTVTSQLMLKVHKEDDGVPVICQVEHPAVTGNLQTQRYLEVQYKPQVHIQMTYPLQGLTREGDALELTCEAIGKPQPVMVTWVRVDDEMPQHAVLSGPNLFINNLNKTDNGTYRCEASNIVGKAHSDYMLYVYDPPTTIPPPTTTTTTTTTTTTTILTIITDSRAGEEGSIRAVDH
The assay is described as follows: ELISA on coated CADM1-His, 150 ng IgG1; None 0.059. The method, then:
as §1, §2

The target in a further assay is T3, PTP4A3 (PRL-3).
T3 construct: coated protein in the ELISA; also called His-PTP4A3 (R&D Systems)
T3 sequence (chain, as listed by the source limits assumed): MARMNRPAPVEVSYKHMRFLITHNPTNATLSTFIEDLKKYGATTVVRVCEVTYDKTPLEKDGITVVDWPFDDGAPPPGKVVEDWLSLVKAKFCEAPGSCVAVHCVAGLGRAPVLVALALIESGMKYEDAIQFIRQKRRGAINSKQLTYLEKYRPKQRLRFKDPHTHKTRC
The experiment in a line: ELISA on coated His-PTP4A3, 150 ng IgG1; None 0.085. Here is the method: as §1, §2

The next assay addresses T4, IGSF11 (VSIG3).
T4 construct: coated protein in the ELISA; also called IGSF11-Fc (R&D Systems)
T4 chain: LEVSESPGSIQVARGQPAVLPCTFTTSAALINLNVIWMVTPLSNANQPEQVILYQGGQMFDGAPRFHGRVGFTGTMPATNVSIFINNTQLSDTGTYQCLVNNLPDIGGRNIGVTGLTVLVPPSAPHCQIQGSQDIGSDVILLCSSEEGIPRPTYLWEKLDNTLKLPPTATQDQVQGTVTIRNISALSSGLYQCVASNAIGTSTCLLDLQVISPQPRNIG
The assay is described as follows: ELISA on coated IGSF11-Fc. The method, then:
as §1, §2

The target of assay [3] is T1, DCC. The assay is described as follows: ELISA on coated DCC-His. The method, then:
as §1, §2

In another assay the target is T5, IL13RA1.
T5 construct: coated protein in the ELISA; also called IL13RA1-Fc-His (R&D Systems)
T5 chain: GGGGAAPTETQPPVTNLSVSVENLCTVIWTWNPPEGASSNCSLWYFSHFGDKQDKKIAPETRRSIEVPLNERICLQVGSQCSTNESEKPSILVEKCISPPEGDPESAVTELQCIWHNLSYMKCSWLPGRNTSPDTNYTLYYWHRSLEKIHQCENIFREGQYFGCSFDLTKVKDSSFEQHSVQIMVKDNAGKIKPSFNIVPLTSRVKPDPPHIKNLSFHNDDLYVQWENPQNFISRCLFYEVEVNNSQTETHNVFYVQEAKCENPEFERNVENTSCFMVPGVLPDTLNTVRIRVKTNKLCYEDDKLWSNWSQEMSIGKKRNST
The experiment in a line: ELISA on coated IL13RA1-Fc-His. Here is the method:
as §1, §2

B1: HW-81 chimeric rabbit-human IgG1 LA/LA/PG (antibody, V domains shown)
VH: QKQLVESGGGLVTPGGTLTLTCTVSGFSLSSNGVSWVRQAPGKGLEYIGLIRSIGSTYYATWAKGRFTISKTSTTVDLKITSPTTEDTATYFCARGGYRNGFKLWGPGTLVTVSS
VL: QPVLTQSPSVSAALGASAKLTCTLSSAHKTYYIEWYQQQHPGKAPRYLMQLQSDGSYTKGTGVPDRFSGSSSGADRYLIISSVQAEDEADYICGVIDSAVYVFGGGTQLTVTG
notes: Fc-silenced (L234A/L235A/P329G) IgG1, lambda; Alexa Fluor 647-labeled in single-step flow cytometry; Cluster C-45
B1: the “ELISA Absorbance (405 nm-570 nm)” value with DCC [1] is 0.068; in assay [2], 0.05; with PTP4A3 (PRL-3), 0.08. Besides, the binding result with IGSF11 (VSIG3), with DCC [3] and in the assay with IL13RA1 was “no binding (tested: 150 ng IgG1 per well)” each time.

B2: HW-17 chimeric rabbit-human IgG1 LA/LA/PG (antibody, V domains shown)
VH: QSLGESRGRLVTPDETLTLTCTVSGIDLSSNAMSWVRQAPGEGLEWIGTINTGGRAYYASWAKGRFTISRTSTTVDLKMTSLTTEDTATYFCARERYSDGRAYDIWGPGTLVTISS
VL: SFVLTQPASVQVNLGQTVSLTCTADTLSRRYASWYQQKPGQAPVLLIYTDSNRPSGIPDRFSGSSSGNTATLTISGAQAGDEADYYCATDDGSGSIYQYVFGGGTQLTVTG
notes: Fc-silenced (L234A/L235A/P329G) IgG1, lambda; Alexa Fluor 647-labeled in single-step flow cytometry; Cluster C-1
B2: the entries for the “ELISA Absorbance (405 nm-570 nm)” value (with DCC [1]; in assay [2]; in the assay with PTP4A3 (PRL-3)) were 0.077, 0.048 and 0.072, respectively. Moreover, the binding result with IGSF11 (VSIG3), with DCC [3] and with IL13RA1 was “no binding (tested: 150 ng IgG1 per well)” throughout.

B3: HW-113 chimeric rabbit-human IgG1 LA/LA/PG (antibody, V domains shown)
VH: QKQLVESGGGLVQPGGSLTLTCTVSGFSLNKYYMGWFRQAPGKGLEWIGVISRSGDTYYSSWAKGRFTISKASTTVDLRITSPTTEDTATYFCARDASSPGFHGDRLDLWGQGTLVTVSS
VL: SFVLTQPASVQVNLGQTVSLTCTADTLSRSYASWYQQKPGQAPVLLIYRDTSRPSGVPDRFSGSSSGNTATLTISGAQAGDEADYYCATSDGIGSNYLWVFGGGTQLTVTG
notes: Fc-silenced (L234A/L235A/P329G) IgG1, lambda; Alexa Fluor 647-labeled in single-step flow cytometry
As for B3, the “ELISA Absorbance (405 nm-570 nm)” value was 0.072 with DCC [1], 0.058 in assay [2] and 0.078 in the assay with PTP4A3 (PRL-3). Also, the binding result in the assay with IGSF11 (VSIG3), in the assay with DCC [3] and in the assay with IL13RA1 was “no binding (tested: 150 ng IgG1 per well)” each time.

B4: HW-97 chimeric rabbit-human IgG1 LA/LA/PG (antibody, V domains shown)
VH: QKQLVESGGRLVTPGTPLTLTCTVTGIDLSSHGMSWVRQAPGKGLEWIGVIYPSGSTWYASWARGRFTISKTSTTVDLKMTSLTTEDTATHFCARGDVGGADNNIWGPGTLVTVSS
VL: SFVLTQPASVQVDLGQTVSLTCTAETLSRSYASWYQQKPGQAPVLLIYRDTSRPSGVPDRFSGSSSGNTATLTISGAQAGDEADYYCATSDGSGSSYQYVFGGGTQLTVTG
notes: Fc-silenced (L234A/L235A/P329G) IgG1, lambda; Alexa Fluor 647-labeled in single-step flow cytometry; Prototype of cluster C-97
B4: the entries for the “ELISA Absorbance (405 nm-570 nm)” value (with DCC [1]; in assay [2]; with PTP4A3 (PRL-3)) were 0.065, 0.679 and 0.065, respectively. The binding result with IGSF11 (VSIG3), with DCC [3] and in the assay with IL13RA1 was “no binding (tested: 150 ng IgG1 per well)” in each case.

B5: HW-101 chimeric rabbit-human IgG1 LA/LA/PG (antibody, V domains shown)
VH: QEQLVESGGRLVTPGTPLTLTCKASGFSLGKYDMSWVRQAPGKGLEWIGTIYAGSGSTWYASWAKGRFTISKTSTTVDLKMTSLTTEDTATYFCARDFLGVNSIWGPGTLVTISS
VL: SFVLTQPASVQVNLGQTVSLTCTADTLSRSYASWYQQKPDQAPVLLIHRDTSRPSGVPDRFSGSNSGNTATLTISGAQAGDEADYYCATSDGSGSNFHFVFGGGTQLTVTG
notes: Fc-silenced (L234A/L235A/P329G) IgG1, lambda; Alexa Fluor 647-labeled in single-step flow cytometry; Cluster C-97
As to B5, the “ELISA Absorbance (405 nm-570 nm)” value with DCC [1] is 0.057; in assay [2], 0.525; with PTP4A3 (PRL-3), 0.065. Further, the binding result in the assay with IGSF11 (VSIG3), in the assay with DCC [3] and in the assay with IL13RA1 was “no binding (tested: 150 ng IgG1 per well)” each time.

B6: HW-8 chimeric rabbit-human IgG1 LA/LA/PG (antibody, V domains shown)
VH: QSLEESGGRLVTPGTPLTLTCTVSGFSLSSYAMSWVRQAPGKGLEWIGAISTGGSTTYASWAKGRFTISKTSSTTVDLKMTSLTTEDTATYFCVRHFRLWGPGTLVTISS
VL: QVLTQTPSSVSAAVGGTVTIKCQASQSIGSALAWFQQKPGQRPKLLIYRASNLASGVPSRFKGSGSGTEFALTISGVQREDAATYYCLGGAAAVWAFGAGTNVEIKR
notes: Fc-silenced (L234A/L235A/P329G) IgG1, kappa; Alexa Fluor 647-labeled in single-step flow cytometry; Cluster C-45
For B6, the “ELISA Absorbance (405 nm-570 nm)” value with DCC [1] came to 0.074; in assay [2] it was 0.05; with PTP4A3 (PRL-3) it was 0.075. For the same molecule, the binding result with IGSF11 (VSIG3), with DCC [3] and in the assay with IL13RA1 was “no binding (tested: 150 ng IgG1 per well)” throughout.
